US20130189280A1

Key:
[1] = biological target: human hemoglobin (Sigma) (human) (UniProt P69905)
[2] = biological target: complex of recombinant human serum albumin and hemin (rHSA-heme) (human) (UniProt P02768); assay: ELISA, rHSA-heme against rHSA on immobilized K3 (FIG. 22)
[3] = biological target: fibrinogen from human plasma (Sigma) (human) (UniProt P02671); assay: ELISA, fibrinogen titrated on immobilized K3; apparent Kd (FIG. 21)
[4] = biological target: fibrinogen from human plasma (Sigma) (human) (UniProt P02671); assay: ELISA, fibrinogen titrated on immobilized K1; apparent Kd (FIG. 21)

K3 domain (Ala1427-Gly1602) of lysine gingipain Kgp from Porphyromonas gingivalis W83, recombinant, non-tagged (from UniProt Q51817 1427-1602)
Kd [1]: 154 nM
fold increase of binding affinity against rHSA without heme [2]: 9 fold
Kd [3]: 570 nM

K1 domain (Gly982-Gly1154) of lysine gingipain Kgp from Porphyromonas gingivalis W83, recombinant (from UniProt Q51817 982-1154)
Kd [4]: 1500 nM
Kd [1]: 360 nM
